Measured values as given in patent publication US7842460.

How the values were obtained:
[1] = target: ISG15-PLA2mX fusion (mouse) (UniProt Q9QXX3); assay: cell-based or functional assay
Ubiquitin-PLA2mX fusion = target: T1, Ubiquitin-PLA2mX fusion (UniProt Q9QXX3)
T1 sequence: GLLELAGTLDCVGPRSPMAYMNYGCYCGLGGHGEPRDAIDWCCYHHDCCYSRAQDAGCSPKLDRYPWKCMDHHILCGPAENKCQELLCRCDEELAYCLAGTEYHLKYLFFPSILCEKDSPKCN

Row | Substance | rate of PLA2 activity (fluorescent lipid substrate), extracts of UBP43-transfected against non-transfected HEK293T cells [1] [fold] | Ratio of PLA2 activity, fusion with isopeptidase over fusion without (Ubiquitin-PLA2mX fusion) | cleavage of the fusion by SDS-PAGE (10 ug fusion, 3 ug core domain of USP2) (Ubiquitin-PLA2mX fusion)
1 | UBP43, the ISG15-specific isopeptidase (enzyme) | 4 |  | 
2 | core domain of USP2 (shared core enzymatic domain of the spliced USP2 product, either USP2a or USP2b) |  | 9.37 | complete cleavage of the fused Ub-PLA2mX was seen
